Legend:
[1] = tested on: A375v human melanoma xenograft (A375v/pCEP, A375v/sTie2); experiment: Tumor growth in A375v human melanoma xenograft model, Example 1 (VEGF receptor kinase inhibitor and/or sTie2); type: in vivo, Swiss nu/nu mice; conditions: s.c. A375v xenograft; kinase inhibitor 50 mg/kg daily oral; sTie2 expressed by tumor cells; untreated control 24 days
Procedure: Human melanoma cell line A375v was stably transfected to overexpress the extracellular ligand-neutralizing domain of human Tie2 receptor tyrosine kinase (sTie2; compound II) (Siemeister et al., Cancer Res. 59, 3185-3191, 1999). For control, A375v cells were stably transfected with the empty expression vector (A375v/pCEP). Swiss nu/nu mice were s.c. injected with 1×10^6 transfected A375v/sTie2 or A375v/pCEP tumor cells, respectively. Animals receiving compound I were treated for up to […] with daily oral doses of 50 mg/kg of the VEGF receptor tyrosine kinase inhibitor (4-Chlorophenyl)[4-(4-pyridylmethyl)-phthalazin-1-yl]ammonium hydrogen succinate (Wood et al., Cancer Res. 60, 2178-2189, 2000). Various modes of treatment are described in Table 1. Tumor growth was determined by caliper measurement of the largest diameter and its perpendicular.

[2] = tested on: Tumors derived from A375v/pCEP cells; experiment: Tumor growth in A375v xenograft, Example 4 (VEGF receptor kinase inhibitor and/or scFv-tTF conjugate); type: in vivo, nude mice; conditions: kinase inhibitor 50 mg/kg daily oral; scFv-tTF conjugate 20 μg i.v. on day 0 and day 4; untreated control approx. 1000 mm^3
Procedure: (§1) Tumors derived from A375v/pCEP cells were induced in nude mice as described in example 1. Animals receiving compound I were treated for up to 28 days with daily oral doses of 50 mg/kg of the VEGF receptor tyrosine kinase inhibitor (4-Chlorophenyl)[4-(4-pyridylmethyl)-phthalazin-1-yl]ammonium hydrogen succinate (Wood et al., Cancer Res. 60, 2178-2189, 2000). Compound II consists of a single chain antibody (scFv) specifically recognizing the human VEGF-A/VEGF receptor I complex (WO 99/19361) which was expressed in E. coli and conjugated to coagulation-inducing recombinant human truncated tissue factor (tTF) by methods descibed by Ran et al. (Cancer Res. 58, 46464653, 1998). When tumors reached a size of approx. 200 mm^3 animals receiving compound II were treated on day 0 and on day 4 with intravenous doses of 20 μg of the scFv-tTF conjugate. Various modes of treatment are described in Table 4. Animals were sacrificed for ethical reasons when tumors of group 1 exceeded a volume of approx. 1000 mm^3. Tumor growth was determined by caliper measurement of the largest diameter and its perpendicular.

[3] = tested on: Tumors derived from A375v/pCEP cells; experiment: Tumor growth in A375v xenograft, Example 6 (VEGF receptor kinase inhibitor and/or L19 scFv-tTF); type: in vivo, nude mice; conditions: kinase inhibitor 50 mg/kg daily oral; L19 scFv-tTF single i.v. dose of 20 μg; untreated control approx. 1000 mm^3
Procedure: Tumors derived from A375v/pCEP cells were induced in nude mice as described in example 1. Animals receiving compound I were treated for up to 28 days with daily oral doses of 50 mg/kg of the VEGF receptor tyrosine kinase inhibitor (4-Chlorophenyl)[4-(4-pyridylmethyl)-phthalazin-1-yl]ammonium hydrogen succinate (Wood et al., Cancer Res. 60, 2178-2189, 2000). Compound II consists of L19 scFv-tTF fusion protein as described in example 5. When tumors reached a size of approx. 200 mm^3 animals receiving compound II were treated with a single intravenous dose of 20 μg of L19 scFv-tTF in 200 μl saline. Various modes of treatment are described in Table 6. Animals were sacrificed for ethical reasons when tumors of -group 1 exceeded a volume of approx. 1000 mm^3. Tumor growth was determined by caliper measurement of the largest diameter and its perpendicular.

[4] = tested on: Tumors derived from A375v/sTie2 cells and from A375v/pCEP cells; experiment: Tumor growth in A375v xenograft, Example 2 (mAb 4301-42-35 and/or sTie2); type: in vivo, nude mice; conditions: sTie2 expressed by tumor cells; untreated control approx. 1000 mm^3
Procedure: Tumors derived from A375v/sTie2 cells and from A375v/pCEP cells were induced in nude mice as described in example 1. Animals receiving compound I were treated twice weekly over a period of time of 4 weeks with intraperitoneal doses of 200 μg of the VEGF-A-neutralizing monoclonal antibody (mAb) 4301-42-35 (Schlaeppi et al., J. Cancer Res. Clin. Oncol. 125, 336-342, 1999). Various modes of treatment are descibed in Table 2. Animals were sacrificed for ethical reasons when tumors of group 1 exceeded a volume of approx. 1000 mm^3. Tumor growth was determined by caliper measurement of the largest diameter and its perpendicular.

[5] = tested on: Tumors derived from A375v/sTie2 cells and from A375v/pCEP cells; experiment: Tumor growth in A375v xenograft, Example 3 (scFv-tTF conjugate and/or sTie2); type: in vivo, nude mice; conditions: sTie2 expressed by tumor cells; untreated control approx. 1000 mm^3
Procedure: as §1, with “derived from A375v/sTie2 cells and” for “derived”, “A” for “Animals receiving compound I were treated for up to 28 days with daily oral doses of 50 mg/kg of the VEGF receptor tyrosine kinase inhibitor (4-Chlorophenyl)[4-(4-pyridylmethyl)-phthalazin-1-yl]ammonium hydrogen succinate (Wood et al., Cancer Res. 60, 2178-2189, 2000). Compound II consists of a”, “99/19361)” for “99/19361) which”, “4646-4653,” for “46464653,”, “I” for “II”, “3.” for “4.”

[6] = tested on: Tumors derived from A375v/sTie2 cells and from A375v/pCEP cells; experiment: Tumor growth in A375v xenograft, Example 5 (L19 scFv-tTF and/or sTie2); type: in vivo, nude mice; conditions: sTie2 expressed by tumor cells; untreated control approx. 1000 mm^3
Text: Tumors derived from A375v/sTie2 cells and from A375v/pCEP cells were induced in nude mice as described in example 1. A fusion protein (L19 scFv-tTF) consisting of L19 single chain antibody specifically recognizing the oncofoetal ED-B domain of fibronectin and the extracellular domain of tissue factor was expressed in E. coli as described by Nilsson et al. (Nat. Med., in press). Further, L19 scFv-tTF data have been represented by D. Neri and F. Nilsson (Meeting “Advances in the application of monoclonal antibodies in clinical oncology”, Samos, Greece, 31. May-2. June 2000). When tumors reached a size of approx. 200 mm^3 animals receiving compound I were treated with a single intravenous dose of 20 μg of L19 scFv-tTF in 200 μl saline. Various modes of treatment are described in Table 5. Animals were sacrificed for ethical reasons when tumors of group 1 exceeded a volume of approx. 1000 mm^3. Tumor growth was determined by caliper measurement of the largest diameter and its perpendicular.

For `Clc1ccc(Nc2nnc(Cc3ccncc3)c3ccccc23)cc1.O=C(O)CCC(=O)O` [(4-Chlorophenyl)[4-(4-pyridylmethyl)-phthalazin-1-yl]ammonium hydrogen succinate], the “time for tumors to grow to a size of approx. 250 mm^2 (mean area)” value [1] was 31 days, the “tumor volume within 28 days” value [2] was “approx. 550 mm^3” and the “tumor volume within 28 days” value [3] was “approx. 550 mm^3”.

B1: sTie2: extracellular ligand-neutralizing domain of human Tie2 receptor tyrosine kinase, overexpressed by transfected A375v cells (protein, UniProt Q02763 23-748, looked up)
extracellular domain: AMDLILINSLPLVSDAETSLTCIASGWRPHEPITIGRDFEALMNQHQDPLEVTQDVTREWAKKVVWKREKASKINGAYFCEGRVRGEAIRIRTMKMRQQASFLPATLTMTVDKGDNVNISFKKVLIKEEDAVIYKNGSFIHSVPRHEVPDILEVHLPHAQPQDAGVYSARYIGGNLFTSAFTRLIVRRCEAQKWGPECNHLCTACMNNGVCHEDTGECICPPGFMGRTCEKACELHTFGRTCKERCSGQEGCKSYVFCLPDPYGCSCATGWKGLQCNEACHPGFYGPDCKLRCSCNNGEMCDRFQGCLCSPGWQGLQCEREGIQRMTPKIVDLPDHIEVNSGKFNPICKASGWPLPTNEEMTLVKPDGTVLHPKDFNHTDHFSVAIFTIHRILPPDSGVWVCSVNTVAGMVEKPFNISVKVLPKPLNAPNVIDTGHNFAVINISSEPYFGDGPIKSKKLLYKPVNHYEAWQHIQVTNEIVTLNYLEPRTEYELCVQLVRRGEGGEGHPGPVRRFTTASIGLPPPRGLNLLPKSQTTLNLTWQPIFPSSEDDFYVEVERRSVQKSDQQNIKVPGNLTSVLLNNLHPREQYVVRARVNTKAQGEWSEDLTAWTLSDILPPQPENIKISNITHSSAVISWTILDGYSISSITIRYKVQGKNEDQHVDVKIKNATITQYQLKGLEPETAYQVDIFAENNIGSSNPAFSHELVTLPESQAPADLGGGKMLL
modifications: extracellular domain
notes: extracellular ligand-neutralizing domain of human Tie2 receptor tyrosine kinase, overexpressed by transfected A375v cells
With B1 the “time for tumors to grow to a size of approx. 250 mm^2 (mean area)” value [1] was 31 days, the “tumor volume within 28 day” value [4] was “approx. 600 mm^2” and the “tumor volume within 28 day” value [5] was “approx. 600 mm^2”. For the same molecule, the “tumor volume within 28 day” value [6] was “approx. 600 mm^2”.

Source: patent US20030055006A1, “Combinations and compositions which interfere with VEGF/VEGF and angiopoietin/tie receptor function and their use” (Schering Aktiengesellschaft, priority 2000, published 2003)
